Reference: US20100129346A1 (G2 INFLAMMATION, published 2010)
No end group written: not given here. *: point of attachment. Biotin = O=C1N[C@H]2[C@H](CS[C@H]2CCCCC(=O)*)N1

T1: 12-mer peptide VREEYFPPKVLC of the human C5aR second extracellular loop (human)
T1 construct: Parent peptide of the alanine scan; each mutant has one residue replaced by alanine
T1 peptide: Biotin-GSGSVREEYFPPKVLC

T2: human C5aR (human, UniProt P21730 1-350)
T2 construct: On human neutrophils, on hC5aR-transfected L1.2 cells or on neutrophils of hC5aR knock-in mice; also called hC5aR; C5a receptor
T2 chain: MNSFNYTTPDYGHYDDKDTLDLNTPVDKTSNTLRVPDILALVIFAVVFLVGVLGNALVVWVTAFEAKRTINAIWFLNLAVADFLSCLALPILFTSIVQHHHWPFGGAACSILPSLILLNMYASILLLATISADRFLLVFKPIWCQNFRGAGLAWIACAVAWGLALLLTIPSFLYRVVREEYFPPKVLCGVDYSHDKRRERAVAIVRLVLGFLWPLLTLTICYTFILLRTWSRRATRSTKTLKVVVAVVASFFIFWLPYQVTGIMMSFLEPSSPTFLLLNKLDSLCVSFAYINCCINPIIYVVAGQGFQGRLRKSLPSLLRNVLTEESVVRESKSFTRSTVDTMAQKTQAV

T3: Biotinylated Human C5aR Peptide (2nd loop), peptide 23 (human, N-terminal biotin)
T3 construct: immobilised on a streptavidin sensor chip for BIACore; also called Biotinylated-Peptide 23; Biot-peptide
T3 peptide: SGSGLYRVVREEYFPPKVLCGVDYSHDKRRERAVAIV


Key:
[1] = molecular target: T1, 12-mer peptide VREEYFPPKVLC of the …; assay: peptide ELISA, biotinylated peptide on streptavidin-coated plates [b]
Method: Streptavidin-coated microtiter plates (NUNC) were coated with 10 μg/ml of peptide/well in a volume of 200 μl, and incubated at 4° C. overnight. Plates were washed three times with ELISA wash buffer (0.05% Tween 20 in PBS). MAbs were added at 2.5 μg/ml, and plates were incubated for 3 hrs at room temperature. HRP-conjugated rabbit anti-mouse IgG antibody diluted 1:1000 in ELISA wash buffer was used for detection. Plates were developed using TMB (3,3′,5,5′ tetramethyl benzidine, SIGMA) and read at […].

[2] = molecular target: T2, human C5aR; assay: competitive 125I-C5a ligand binding to hC5aR on human neutrophils; blocked ligand human C5a; 3 experiments; the table's column has no unit, nM is that of the axis Log Conc (nM)
Method: (§1) Human neutrophils were washed and re-suspended in binding buffer (50 mM HEPES, pH7.5, 1 mM CaCl2, 5 mM MgCl2, and 0.5% BSA) at 1×10⁷/ml. For each binding reaction (in a final volume of 120 μl), 40 μl cell suspension (4×10⁵ cells) with an appropriate amount of anti-hC5aR mAb, isotype matched control mAb or unlabelled human C5a (SIGMA) was incubated at room temperature for 15 min. ¹²⁵I-labelled human C5a (Perkin Elmer) was added at a final concentration of 0.4 nM and the reactions were incubated at room temperature for 60 min. Cells were then collected and washed 3 times with binding buffer containing 150 mM NaCl. Cells were then transferred to Opti plates (Perkin Elmer) with MicroScint 20 scintillation fluid and radioactivity counted on TopCount (Packard). Each sample was assayed in triplicate.
(§2) Further competitive ligand binding studies were conducted to measure ¹²⁵I-C5a displacement from hC5aR on hC5aR-transfected L1.2 cells with 7F3 or 3C5.

[3] = molecular target: T3, Biotinylated Human C5aR Peptide (2nd …); assay: SPR (BIACore 2000), biotinylated peptide 23 on SA chip, mAb as analyte
[4] = molecular target: T3, Biotinylated Human C5aR Peptide (2nd …); assay: SPR (BIACore), biotinylated peptide 23 on SA chip; experiment 1
[5] = molecular target: T3, Biotinylated Human C5aR Peptide (2nd …); assay: SPR (BIACore), biotinylated peptide 23 on SA chip; experiment 4 (6.25 nM-0.4 nM, 1 min association, 3 min dissociation)
Method: (§3) Additional BIACore analyses were performed to compare binding affinities of antibodies 7F3 and 3C5 to peptide 23 under varying conditions. The conditions for these additional BIAcore experiments were as described above under “Experimental Details” with the following modifications: [0295] Experiment 2: Antibody concentrations included in kinetic analysis—100 nM-0.78 nM; 20 min dissociation. [0296] Experiment 3: Antibody concentrations included in kinetic analysis—7F3: 25 nM-0.78 nM,; 3C5: 6.25nM-0.78nM; 5 min dissociation. [0297] Experiment 4: Antibody concentrations included in kinetic analysis—7F3: 25 nM-1.56 nM,; 3C5: 6.25 nM-0.4 nM; 1 min association, 3 min dissociation.

[6] = molecular target: T3, Biotinylated Human C5aR Peptide (2nd …); assay: SPR (BIACore), biotinylated peptide 23 on SA chip; experiment 3 (6.25 nM-0.78 nM, 5 min dissociation)
Method: as §3

[7] = molecular target: T2, human C5aR; assay: displacement of 125I-C5a from hC5aR on hC5aR-transfected L1.2 cells; hC5aR-transfected L1.2 cells
[8] = molecular target: T3, Biotinylated Human C5aR Peptide (2nd …); assay: SPR (BIACore), biotinylated peptide 23 on SA chip; reference 7F3
[9] = molecular target: T3, Biotinylated Human C5aR Peptide (2nd …); assay: SPR (BIACore), biotinylated peptide 23 on SA chip; experiment 2 (100 nM-0.78 nM, 20 min dissociation)
Method: as §3

[10] = molecular target: T2, human C5aR; assay: competition with 125I-C5a (0.4 nM) for binding to human neutrophils; human neutrophils
Method: as §1, §2

[11] = molecular target: T3, Biotinylated Human C5aR Peptide (2nd …); assay: SPR (BIACore), biotinylated peptide 23 on SA chip; experiment 3 (25 nM-0.78 nM, 5 min dissociation)
[12] = molecular target: T2, human C5aR; assay: displacement of 125I-C5a from hC5aR on hC5aR-transfected L1.2 cells
[13] = molecular target: T2, human C5aR; assay: competition with 125I-C5a (0.4 nM) for binding to human neutrophils
[14] = molecular target: T3, Biotinylated Human C5aR Peptide (2nd …); assay: SPR (BIACore), biotinylated peptide 23 on SA chip; experiment 4 (25 nM-1.56 nM, 1 min association, 3 min dissociation)

Binder	binding result [1]	IC50 [2]	Ka [3]	Kd [3]	koff [3]	kon [3]	Ka [4]	Kd [4]	koff [4]	kon [4]	Ka [9]	Kd [9]	koff [9]	kon [9]	further results
MAb 8G7 (antibody, V domains shown, Mouse monoclonal antibody from a hybridoma (ECACC 06081803); also called 8G7-M6) VH: DIQLQESGPGLVKPSQSLSLTCSVTGYSITSGHYWNWIRQLPGNKMEWMGHISNDGSNRYNPSLKNRISITRDTSKNQFFLKLNSVTTEDTATYYCALFYFAYASFAYWGQGTLVTVSA VL: DVVMTQTPLSLPVSLGDQASISCRSSQSLLHSNGNTYLHWYLQKPGQSPKLLIYKVSTRFSGVPDRFSGSGSGADFTLQISRVEAEDLGVYLCSQSTHVPPTFGAGTKLVLT	binds	214 pM	6.3e+08 M⁻¹	1600 pM	0.0059 s⁻¹	3.7e+06 M⁻¹ s⁻¹									
MAb 7H3 (antibody, V domains shown, Mouse monoclonal antibody from a hybridoma (ECACC 06081802); also called 7H3-N9) VH: EVKLEESGGGLVQPGGSMKLSCVASGFTFSDAWMDWVRQSPEKGLEWVAGIRNRANNHATYYVASVKGRFTVSRDDSKSSVYLQMNSLRAEDAGIYYCTRGDGYFFDYWGQGTTLTVSS VL: DVVLTQTPLSLSVSLGDQASISCRSGQSLVHSNGNTYLHWYLQKPGQSSKLLIYKVSNRLSGVPDRFSGSGSGTDFTLKISRVEAEDLGVYFCSQTTHVPPTFGGGTKLEIK	binds	275 pM	5.97e+07 M⁻¹	16700 pM	0.00995 s⁻¹	595000 M⁻¹ s⁻¹									
MAb 3C5 (antibody, V domains shown) VH: DVQLQESGPGLVKPSQSLSLTCSVTGYSITSGNYWNWIRQFPGKKLEWMGHISYDGNNKYNPSLKNRISITRDTSKNQFFLRLNSVTAEDTAAYYCALFYFDYASFTYWGQGTLVTVSA VL: DVVMTQTPLSLPVSLGDQASISCRSSQSLVHSNGNTYLHWYLRKPGQSPKLLIYKVSNRFSGVPDRFSGSGSGTDFTLKISRVEAEDLGVYFCSQSTHVPPTFGAGTKLELK			2.1e+09 M⁻¹	480 pM	0.0016 s⁻¹	3.3e+06 M⁻¹ s⁻¹	1.3e+09 M⁻¹	760 pM	0.00052 s⁻¹	680000 M⁻¹ s⁻¹	2.2e+09 M⁻¹	450 pM	0.0007 s⁻¹	1.5e+06 M⁻¹ s⁻¹	Ka [5]: 7.16e+08 M⁻¹; Kd [5]: 1400 pM; koff [5]: 0.00144 s⁻¹; kon [5]: 1.03e+06 M⁻¹ s⁻¹; Ka [6]: 9.6e+08 M⁻¹; Kd [6]: 1040 pM; koff [6]: 0.00111 s⁻¹; kon [6]: 1.06e+06 M⁻¹ s⁻¹; EC50 [7]: 21 pM; fold improved affinity over 7F3 [8]: ~1.5 fold; IC50 [10]: 171 pM
MAb 7F3 (antibody, V domains shown) VH: QVQLQQSGPELVKPGASVKISCKASGYAFSNSWMNWVKQRPGKGLEWIGRIYPGDGDTKYNGKFKGKATLTADKSSSTAYMQLSSLTSEDSAVYFCARFLLISTVTAVDYWGQGTTLTVSS VL: DVVMTQSPLSLPVSLGNQASISCRSSQSLVHSNGNTYLHWYLQKPGQSPKLLIYKVSNRFSGVPDRFSGSGSGTDFSLKISRVEAEDLGVYFCSQSTLVPLTFGAGTKLELK			1.4e+09 M⁻¹	700 pM	0.00045 s⁻¹	640000 M⁻¹ s⁻¹	5.4e+08 M⁻¹	1800 pM	0.00038 s⁻¹	210000 M⁻¹ s⁻¹	8.1e+08 M⁻¹	1200 pM	0.00035 s⁻¹	290000 M⁻¹ s⁻¹	Ka [11]: 7.19e+08 M⁻¹; Kd [11]: 1390 pM; koff [11]: 0.000462 s⁻¹; kon [11]: 332000 M⁻¹ s⁻¹; EC50 [12]: 480 pM; IC50 [13]: 503 pM; Ka [14]: 4.79e+08 M⁻¹; Kd [14]: 2090 pM; koff [14]: 0.000598 s⁻¹; kon [14]: 286000 M⁻¹ s⁻¹
